Earlier results in paper PMC2912330.
Read-outs that look alike come from different tables or passages of the source.

Key:
VEGFR2 (Homo sapiens) [1] = target: VEGFR2 (Homo sapiens) (UniProt P35968)
VEGFR2 (Homo sapiens) [2] = target: VEGFR2 (Homo sapiens) (UniProt P35968); remark: listed apart in the source

Chain of UniProt P35968 (P35968 20-1356): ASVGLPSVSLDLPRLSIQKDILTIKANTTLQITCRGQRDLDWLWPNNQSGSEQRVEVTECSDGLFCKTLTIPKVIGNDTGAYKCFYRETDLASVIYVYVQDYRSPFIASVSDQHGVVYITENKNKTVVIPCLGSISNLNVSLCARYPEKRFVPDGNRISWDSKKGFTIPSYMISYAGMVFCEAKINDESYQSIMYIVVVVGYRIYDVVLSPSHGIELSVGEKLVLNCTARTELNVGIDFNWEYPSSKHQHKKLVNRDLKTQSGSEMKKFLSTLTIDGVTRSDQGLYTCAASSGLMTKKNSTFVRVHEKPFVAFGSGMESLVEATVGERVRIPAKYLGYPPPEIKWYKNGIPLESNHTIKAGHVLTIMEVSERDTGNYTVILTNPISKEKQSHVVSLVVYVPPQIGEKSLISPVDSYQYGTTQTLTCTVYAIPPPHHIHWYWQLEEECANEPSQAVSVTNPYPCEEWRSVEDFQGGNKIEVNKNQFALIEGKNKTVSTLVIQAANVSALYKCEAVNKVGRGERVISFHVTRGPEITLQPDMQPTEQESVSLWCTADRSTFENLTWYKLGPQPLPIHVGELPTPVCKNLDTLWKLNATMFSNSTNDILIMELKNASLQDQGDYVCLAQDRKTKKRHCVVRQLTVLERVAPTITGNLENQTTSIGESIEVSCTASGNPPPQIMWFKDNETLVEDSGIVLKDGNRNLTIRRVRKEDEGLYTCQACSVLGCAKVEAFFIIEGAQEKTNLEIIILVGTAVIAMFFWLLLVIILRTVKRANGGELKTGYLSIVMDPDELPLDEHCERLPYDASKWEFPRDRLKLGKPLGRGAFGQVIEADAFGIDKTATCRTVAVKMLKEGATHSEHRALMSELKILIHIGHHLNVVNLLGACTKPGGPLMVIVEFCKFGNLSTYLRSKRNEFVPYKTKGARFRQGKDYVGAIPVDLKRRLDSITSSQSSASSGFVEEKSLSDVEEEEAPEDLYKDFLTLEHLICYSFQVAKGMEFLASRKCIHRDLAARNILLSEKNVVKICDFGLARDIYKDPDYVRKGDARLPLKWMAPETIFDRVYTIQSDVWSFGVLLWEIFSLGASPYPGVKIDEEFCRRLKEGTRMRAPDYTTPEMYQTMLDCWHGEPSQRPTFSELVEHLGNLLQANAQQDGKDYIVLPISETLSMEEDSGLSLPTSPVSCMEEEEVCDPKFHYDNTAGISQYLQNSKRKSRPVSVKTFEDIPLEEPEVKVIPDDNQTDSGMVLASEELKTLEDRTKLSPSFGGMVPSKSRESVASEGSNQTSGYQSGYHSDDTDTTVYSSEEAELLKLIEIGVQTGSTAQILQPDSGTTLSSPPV

Substance: VEGF114 VEGF114 (from UniProt P15692)
- Kd (VEGFR2 (Homo sapiens) [1]): 0.1 nM

Substance: VEGF165 VEGF165 (from UniProt P15692)
- Kd (VEGFR2 (Homo sapiens) [2]): 0.1 nM
